Measurements reported in US20250296971A1, “GASTRIC INHIBITORY PEPTIDE RECEPTOR LIGANDS” (priority 2021, published 2025).
*1 amine or outer side, *2 acyl side, *3 side chain or, on linkers, in order; H or OH if unused. Bridges are numbered along the chain shown (N, C = ends). Primed or numbered codes have the meaning given here. Where no end group is shown, it is not given here. [ ]: non-standard residue; d: D form. The star is where a group is joined. Ttds = 1,13-diamino-4,7,10-trioxatridecan-succinamic acid, NCCCOCCOCCOCCCNC(=O)CCC(=O)*; APAc″ = 4-amino-1-carboxymethylpiperidine, NC1CCN(CC(=O)*)CC1; dE(AGLU) = D-glutamic acid bearing 1-amino-1-deoxy-D-glucitol; MeO36PEG = monodisperse PEG 36 units conjugated with acetyl; Pro(trans-4-NH2) = O=C([C@@H]1C[C@@H](N[*:3])CN1[*:1])[*:2]; DOTA = O=C(O)CN1CCN(CC(=O)O)CCN(CC(=O)*)CCN(CC(=O)O)CC1; MeO2kDaPEGAc″ = methoxy polydisperse 2 kDa PEG acetyl; 2Lut = 2,6-lutidylidene bridge between two thiols; Trp(5-Cl) = N[C@@H](Cc1c[nH]c2ccc(Cl)cc12)C(=O)O; Phe(3,5-Cl2) = N[C@@H](Cc1cc(Cl)cc(Cl)c1)C(=O)O; Pyridine(2,6-diCH2) = c1cc(C[*:1])nc(C[*:2])c1; APAc = 4-amino-1-carboxymethylpiperidine; Phe(2-Cl) = N[C@@H](Cc1ccccc1Cl)C(=O)O; Glutaryl = O=C(CCCC(=O)[*:2])[*:1]; AGLU = 1-amino-1-deoxy-D-glucitol; Hyp = O=C(O)[C@@H]1C[C@@H](O)CN1; Suc = O=C(CCC(=O)[*:2])[*:1]; GLUSEROL = not defined here; NTASEROL = not defined here; 2Lut(3) = 2,6-lutidylidene; hCys = N[C@@H](CCS)C(=O)O; Api = NC1(C(=O)O)CCNCC1; Thp = NC1(C(=O)O)CCOCC1

B1: HO-Succinyl-Trp-5Clw-Hyp-Glu-leu-[Cys(2Lut)-Thp-Leu-Ile-Cys]-APAc-lys(MeO2kDaPEGAc)-Lys(DOTA)-NH2 (peptide)
peptide: Suc-W[Trp(5-Cl)][Hyp]E[dL]C[Thp]LIC
modifications: linker 6-10 via 2Lut; not fully specified (C-terminus); printed as HO-Succinyl-Trp-5Clw-Hyp-Glu-leu-[Cys(2Lut)-Thp-Leu-Ile-Cys]-APAc-lys(MeO2kDaPEGAc)-Lys(DOTA)-NH2
B2: AGLU-Glutar-APAc-Hse-Trp-5Clw-Hyp-Glu-leu-[Cys(2Lut)-Apc(DOTA-glu(AGLU))-Leu-Ile-Cys]-APAc-glu(AGLU)-NH2 (peptide)
peptide: XWXXEXCXLIC
modifications: not fully specified; N-term AGLU-Glutar-APAc; Hse; 5Clw; Hyp; leu (D-Leu); thioether cycle [Cys(2Lut)..Cys]; Apc(DOTA-glu(AGLU)); C-term APAc-glu(AGLU)-NH2
B3: Ac-Asp-Trp-5Clw-Hyp-Glu-leu-[Cys(2Lut)-Thp-Leu-Phe-Cys]-NH2 (peptide)
peptide: Ac-DW[Trp(5-Cl)][Hyp]E[dL]C[Thp]LFC-NH2
modifications: linker 7-11 via Pyridine(2,6-diCH2)
SMILES: CC(=O)N[C@@H](CC(=O)O)C(=O)N[C@@H](Cc1c[nH]c2ccccc12)C(=O)N[C@@H](Cc1c[nH]c2ccc(Cl)cc12)C(=O)N1C[C@H](O)C[C@H]1C(=O)N[C@@H](CCC(=O)O)C(=O)N[C@H](CC(C)C)C(=O)N[C@H]1CSCc2cccc(n2)CSC[C@@H](C(N)=O)NC(=O)[C@H](Cc2ccccc2)NC(=O)[C@H](CC(C)C)NC(=O)C2(CCOCC2)NC1=O

Tests used:
[1] = target: human Gastric Inhibitory Peptide Receptor (human) (UniProt P48546); experiment: FACS competition with GIP-057 on CHO-K1-hGIPR cells; pIC50 category B: 7.1-8.0
[2] = target: human Gastric Inhibitory Peptide Receptor (GIPR) (human) (UniProt P48546); experiment: FACS competition vs biotinylated GIP-057 on CHO-K1-hGIPR cells; category B: pIC50 7.1-8.0
[3] = target: biotinylated extracellular domain of the human GIP receptor (bioGIPR) (human) (UniProt P48546); experiment: SPR single cycle kinetics, bioGIPR captured on chip; category A: t1/2 >15 min
[4] = target: human Gastric Inhibitory Peptide Receptor (GIPR) (human) (UniProt P48546); experiment: FACS competition vs biotinylated GIP-057 on CHO-K1-hGIPR cells; category A: pIC50 >8.0
[5] = target: biotinylated extracellular domain of the human GIP receptor (bioGIPR) (human) (UniProt P48546); experiment: SPR single cycle kinetics, bioGIPR captured on chip; category A: pKD >9.0

human Gastric Inhibitory Peptide Receptor (GIPR) (human), sequence (P48546 22-466 limits assumed): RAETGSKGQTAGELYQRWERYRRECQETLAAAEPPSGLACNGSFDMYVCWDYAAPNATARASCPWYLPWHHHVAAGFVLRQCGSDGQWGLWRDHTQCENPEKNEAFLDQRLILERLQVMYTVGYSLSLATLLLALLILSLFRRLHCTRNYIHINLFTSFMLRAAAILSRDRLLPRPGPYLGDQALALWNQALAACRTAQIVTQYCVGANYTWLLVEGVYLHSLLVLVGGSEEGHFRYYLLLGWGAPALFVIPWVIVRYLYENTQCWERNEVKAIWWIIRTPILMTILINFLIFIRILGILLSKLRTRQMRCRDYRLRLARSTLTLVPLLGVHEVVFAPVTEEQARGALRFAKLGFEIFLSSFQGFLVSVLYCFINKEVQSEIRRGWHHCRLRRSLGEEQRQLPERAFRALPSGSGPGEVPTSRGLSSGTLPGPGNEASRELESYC
human Gastric Inhibitory Peptide Receptor (human), sequence (P48546 22-466 limits assumed): as above
biotinylated extracellular domain of the human GIP receptor (bioGIPR) (human), sequence (P48546 24-138 limits assumed): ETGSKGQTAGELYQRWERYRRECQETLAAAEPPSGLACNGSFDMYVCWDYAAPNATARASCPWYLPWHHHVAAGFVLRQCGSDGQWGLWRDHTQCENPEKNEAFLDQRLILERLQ

Binder | pIC50 [1] [pic50] | pIC50 [2] [pic50] | further results
B1 | 7.1 to 8 | – | –
B2 | 7.1 to 8 | – | –
Ac-DW[Trp(5-Cl)][Hyp]E[dL][hCys][Thp]LI[hCys]-NH2 (disulfide 7-11) [Ac-Asp-Trp-5Clw-Hyp-Glu-leu-[Hcy-Thp-Leu-Ile-Hcy]-NH2] | – | 7.1 to 8 | –
Ac-D[Phe(2-Cl)][Trp(5-Cl)][Hyp]E[dL]C[Api](DOTA)LIC-NH2 (linker 7-11 via Pyridine(2,6-diCH2)) [Ac-Asp-Ocf-5Clw-Hyp-Glu-leu-[Cys(2Lut)-Apc(DOTA)-Leu-Ile-Cys]-NH2] | – | 7.1 to 8 | –
Ac-D[Phe(2-Cl)][Trp(5-Cl)][Pro(trans-4-NH2)](DOTA)E[dL]C[Thp]LIC-NH2 (linker 7-11 via Pyridine(2,6-diCH2)) [Ac-Asp-Ocf-5Clw-Tap(DOTA)-Glu-leu-[Cys(2Lut)-Thp-Leu-Ile-Cys]-NH2] | – | 7.1 to 8 | –
{DOTA-Ttds}-D[Phe(2-Cl)][Trp(5-Cl)][Hyp]E[dL]C[Thp]LIC-NH2 (linker 7-11 via 2Lut(3)) [DOTA-Ttds-Asp-Ocf-5Clw-Hyp-Glu-leu-[Cys(2Lut)-Thp-Leu-Ile-Cys]-NH2] | – | 7.1 to 8 | –
{NTASEROL}-DW[Trp(5-Cl)][Pro(trans-4-NH2)]E[dL]C[Api](DOTA)LIC-{APAc-GLUSEROL} (linker 7-11 via Pyridine(2,6-diCH2); reading uncertain) [NTASEROL-Asp-Trp-5Clw-Tap-Glu-leu-[Cys(2Lut)-Apc(DOTA)-Leu-Ile-Cys]-APAc-GLUSEROL] | – | – | t1/2 [3]: > 15 min; pIC50 [4]: > 8 pic50; pKD [5]: > 9 pkd
Ac-DW[Trp(5-Cl)][Hyp]P[dL]C[Thp]LIC-NH2 (linker 7-11 via Pyridine(2,6-diCH2)) [Ac-Asp-Trp-5Clw-Hyp-Pro-leu-[Cys(2Lut)-Thp-Leu-Ile-Cys]-NH2] | – | 7.1 to 8 | –
{MeO36PEG-APAc}-DW[Trp(5-Cl)][Hyp]E[dL]C[Api](DOTA)LIC-{APAc-dE(AGLU)-NH2} (linker 7-11 via Pyridine(2,6-diCH2)) [MeO36PEG-APAc-Asp-Trp-5Clw-Hyp-Glu-leu-[Cys(2Lut)-Apc(DOTA)-Leu-Ile-Cys]-APAc-glu(AGLU)-NH2] | 7.1 to 8 | – | –
{MeO36PEG-APAc″}-DW[Trp(5-Cl)][Hyp]E[dL]C[Api](DOTA)LIC-{dE(AGLU)-NH2} (linker 7-11 via Pyridine(2,6-diCH2)) [MeO36PEG-APAc-Asp-Trp-5Clw-Hyp-Glu-leu-[Cys(2Lut)-Apc(DOTA)-Leu-Ile-Cys]-glu(AGLU)-NH2] | 7.1 to 8 | – | –
{DOTA-Ttds}-DW[Phe(3,5-Cl2)][Hyp]E[dL]C[Thp]LIC-NH2 (linker 7-11 via Pyridine(2,6-diCH2)) [DOTA-Ttds-Asp-Trp-Egn-Hyp-Glu-leu-[Cys(2Lut)-Thp-Leu-Ile-Cys]-NH2] | – | 7.1 to 8 | –
B3 | – | 7.1 to 8 | –
{AGLU-Glutaryl-APAc″}-DW[Trp(5-Cl)][Hyp]E[dL]C[Api](DOTA)LIC (linker 7-11 via Pyridine(2,6-diCH2); not fully specified (C-terminus)) [AGLU-Glutar-APAc-Asp-Trp-5Clw-Hyp-Glu-leu-[Cys(2Lut)-Apc(DOTA)-Leu-Ile-Cys]-lys(MeO36PEG)-NH2] | 7.1 to 8 | – | –
Suc-W[Trp(5-Cl)][Hyp]E[dL]C[Api](MeO2kDaPEGAc″)LIC-{APAc-Lys(DOTA)-NH2} (linker 6-10 via Pyridine(2,6-diCH2)) [HO-Succinyl-Trp-5Clw-Hyp-Glu-leu-[Cys(2Lut)-Apc(MeO2kDaPEGAc)-Leu-Ile-Cys]-APAc-Lys(DOTA)-NH2] | 7.1 to 8 | – | –
{DOTA-Ttds}-DW[Trp(5-Cl)][Hyp]E[dL]C[Thp]LFC-NH2 (linker 7-11 via 2Lut(3)) [DOTA-Ttds-Asp-Trp-5Clw-Hyp-Glu-leu-[Cys(2Lut)-Thp-Leu-Phe-Cys]-NH2] | – | 7.1 to 8 | –
{AGLU-Glutaryl}-DW[Trp(5-Cl)][Pro(trans-4-NH2)]E[dL]C[dK](DOTA)LIC-{APAc-dE(AGLU)-NH2} (linker 7-11 via Pyridine(2,6-diCH2)) [AGLU-Glutar-Asp-Trp-5Clw-Tap-Glu-leu-[Cys(2Lut)-lys(DOTA)-Leu-Ile-Cys]-APAc-glu(AGLU)-NH2] | 7.1 to 8 | – | –
Ac-DW[Trp(5-Cl)][Hyp]W[dL]C[Thp]LIC-NH2 (linker 7-11 via Pyridine(2,6-diCH2)) [Ac-Asp-Trp-5Clw-Hyp-Trp-leu-[Cys(2Lut)-Thp-Leu-Ile-Cys]-NH2] | – | 7.1 to 8 | –
Ac-D[Phe(2-Cl)][Trp(5-Cl)][Hyp]E[dL]C[Thp]LIC-NH2 (linker 7-11 via Pyridine(2,6-diCH2)) [Ac-Asp-Ocf-5Clw-Hyp-Glu-leu-[Cys(2Lut)-Thp-Leu-Ile-Cys]-NH2] | – | 7.1 to 8 | –
